The source of these data is US6500669.

The target in this data set is hUBF (upstream binding factor, RNA polymerase I transcription factor) (Homo sapiens) (UniProt P17480). The experiment in a line: footprint. Particulars: apparent Kd, half-maximal binding; cooperative, Hill 2.7; 14 mM MgCl2, 50 mM KCl, pH 7.9, 30 C.
hUBF (upstream binding factor, RNA polymerase I transcription factor) (Homo sapiens), sequence (P17480 whole entry): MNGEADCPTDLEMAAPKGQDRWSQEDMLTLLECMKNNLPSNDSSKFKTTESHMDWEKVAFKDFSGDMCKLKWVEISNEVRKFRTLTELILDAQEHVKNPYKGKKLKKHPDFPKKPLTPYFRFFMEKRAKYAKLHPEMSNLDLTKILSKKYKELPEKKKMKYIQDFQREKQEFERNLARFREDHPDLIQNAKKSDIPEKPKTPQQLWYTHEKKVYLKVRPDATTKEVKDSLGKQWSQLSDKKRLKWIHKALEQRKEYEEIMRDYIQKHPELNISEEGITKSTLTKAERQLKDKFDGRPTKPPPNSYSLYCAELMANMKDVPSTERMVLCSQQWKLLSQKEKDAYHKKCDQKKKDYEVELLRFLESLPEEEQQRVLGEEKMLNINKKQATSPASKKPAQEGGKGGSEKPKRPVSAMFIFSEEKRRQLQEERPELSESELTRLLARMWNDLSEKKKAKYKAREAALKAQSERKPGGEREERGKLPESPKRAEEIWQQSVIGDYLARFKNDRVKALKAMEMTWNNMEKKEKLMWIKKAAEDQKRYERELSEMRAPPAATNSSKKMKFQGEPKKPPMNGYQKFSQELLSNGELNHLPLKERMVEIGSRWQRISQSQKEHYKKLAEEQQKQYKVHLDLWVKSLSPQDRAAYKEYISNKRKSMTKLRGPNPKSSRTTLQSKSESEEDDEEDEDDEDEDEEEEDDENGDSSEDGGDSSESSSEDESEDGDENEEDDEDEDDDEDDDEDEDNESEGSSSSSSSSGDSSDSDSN

For the substance “human rRNA gene promoter fragment -208 to +78 (EcoRI-BstEII of pSBr208)”, the Kd came out at 0.018 nM.
